This note sets out measurements from the supplement of paper PMC11316812.

For data set [1], the system named is MCF7. The data set can be described thus: percentage of EdU-negative (G0-arrested) nuclei per well, 72 h; higher = more G0 arrest. Particulars: reference: sequence is the full UniProt precursor, the tested protein was the secreted form or ectodomain.
Data set [2] deals with hTERT-HMEC. The data set is described as above. Particulars: reference: sequence is the full UniProt precursor, the tested protein was the secreted form or ectodomain.
Where [3] appears, read: protein concentration 0.0055 µM.
Where [4] appears, read: protein concentration 0.0225 µM.
The mark [5] stands for this setting: protein concentration 0.02225 µM.
Where [6] appears, read: protein concentration 0.2225 µM.
Setting [7] is: protein concentration 0.03125 µM.
Setting [8] is: protein concentration 0.3125 µM.

± gives the standard deviation of the averaged measurements.
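Further: secreted proteins added to cultured cells, EdU pulse at the end, nuclei found by Hoechst imaging, EdU status from nuclear versus surrounding ring intensity ratio, PBS as neutral control.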

For “MRLTVLCAVCLLPGSLALPLPQEAGGMSELQWEQAQDYLKRFYLYDSETKNANSLEAKLKEMQKFFGLPITGMLNSRVIEIMQKPRCGVPDVAEYSLFPNSPKWTSKVVTYRIVSYTRDLPHITVDRLVSKALNMWGKEIPLHFRKVVWGTADIMIGFARGAHGDSYPFDGPGNTLAHAFAPGTGLGGDAHFDEDERWTDGSSLGINFLYAATHELGHSLGMGHSSDPNAVMYPTYGNGDPQNFKLSQDDIKGIQKLYGKRSNSRKK”, the “percentage of EdU-negative” value is 26.4 ± 1.6% in data set [1] (setting [3]), 29.9 ± 0.45% in data set [1] (protein concentration 0.055 µM), 5.71 ± 0.72% in data set [2] (setting [3]) and 15 ± 1.8% in data set [2] (protein concentration 0.055 µM).

In the case of “MRMLLALLALSAARPSASAESHWCYEVQAESSNYPCLVPVKWGGNCQKDRQSPINIVTTKAKVDKKLGRFFFSGYDKKQTWTVQNNGHSVMMLLENKASISGGGLPAPYQAKQLHLHWSDLPYKGSEHSLDGEHFAMEMHIVHEKEKGTSRNVKEAQDPEDEIAVLAFLVEAGTQVNEGFQPLVEALSNIPKPEMSTTMAESSLLDLLPKEEKLRHYFRYLGSLTTPTCDEKVVWTVFREPIQLHREQILAFSQKLYYDKEQTVSMKDNVRPLQQLGQRTVIKSGAPGRPLPWALPALLGPMLACLLAGFLR”, the “percentage of EdU-negative” value in data set [1] (setting [4]) amounted to 24.9 ± 1.8%; in data set [1] (protein concentration 0.225 µM), 25.5 ± 1.3%; in data set [2] (setting [4]), 5.11 ± 0.088%; in data set [2] (protein concentration 0.225 µM) it was 7.91 ± 0.34%.

As for “MRNSYRFLASSLSVVVSLLLIPEDVCEKIIGGNEVTPHSRPYMVLLSLDRKTICAGALIAKDWVLTAAHCNLNKRSQVILGAHSITREEPTKQIMLVKKEFPYPCYDPATREGDLKLLQLMEKAKINKYVTILHLPKKGDDVKPGTMCQVAGWGRTHNSASWSDTLREVNITIIDRKVCNDRNHYNFNPVIGMNMVCAGSLRGGRDSCNGDSGSPLLCEGVFRGVTSFGLENKCGDPRGPGVYILLSKKHLNWIIMTIKGAV”, the “percentage of EdU-negative” value in data set [1] (setting [4]) stood at 27.7 ± 2.1%; in data set [1] (protein concentration 0.225 µM), 30.8 ± 3.2%; in data set [2] (setting [4]), 5.3 ± 0.55%; in data set [2] (protein concentration 0.225 µM), 5.96 ± 1.8%.

Turning to “MRNWLVLLCPCVLGAALHLWLRLRSPPPACASGAGPADQLALFPQWKSTHYDVVVGVLSARNNHELRNVIRSTWMRHLLQHPTLSQRVLVKFIIGAHGCEVPVEDREDPYSCKLLNITNPVLNQEIEAFSLSEDTSSGLPEDRVVSVSFRVLYPIVITSLGVFYDANDVGFQRNITVKLYQAEQEEALFIARFSPPSCGVQVNKLWYKPVEQFILPESFEGTIVWESQDLHGLVSRNLHKVTVNDGGGVLRVITAGEGALPHEFLEGVEGVAGGFIYTIQEGDALLHNLHSRPQRLIDHIRNLHEEDALLKEESSIYDDIVFVDVVDTYRNVPAKLLNFYRWTVETTSFNLLLKTDDDCYIDLEAVFNRIVQKNLDGPNFWWGNFRLNWAVDRTGKWQELEYPSPAYPAFACGSGYVISKDIVKWLASNSGRLKTYQGEDVSMGIWMAAIGPKRYQDSLWLCEKTCETGMLSSPQYSPWELTELWKLKERCGDPCRCQAR [Q8NCR0]”, the “percentage of EdU-negative” value in data set [1] (setting [5]) amounted to 25.7 ± 4.8%; in data set [1] (setting [6]), 29.39 ± 0.067%; in data set [2] (setting [5]) it was 5.56 ± 0.58%; in data set [2] (setting [6]), 11 ± 1%.

With “MRPGAPGPLWPLPWGALAWAVGFVSSMGSGNPAPGGVCWLQQGQEATCSLVLQTDVTRAECCASGNIDTAWSNLTHPGNKINLLGFLGLVHCLPCKDSCDGVECGPGKACRMLGGRPRCECAPDCSGLPARLQVCGSDGATYRDECELRAARCRGHPDLSVMYRGRCRKSCEHVVCPRPQSCVVDQTGSAHCVVCRAAPCPVPSSPGQELCGNNNVTYISSCHMRQATCFLGRSIGVRHAGSCAGTPEEPPGGESAEEEENFV”, the “percentage of EdU-negative” value worked out at 26 ± 2.5% in data set [1] (setting [7]), 24.7 ± 3.3% in data set [1] (setting [8]), 4.24 ± 0.09% in data set [2] (setting [7]) and 4.84 ± 0.11% in data set [2] (setting [8]).

Take “MRPLAGGLLKVVFVVFASLCAWYSGYLLAELIPDAPLSSAAYSIRSIGERPVLKAPVPKRQKCDHWTPCPSDTYAYRLLSGGGRSKYAKICFEDNLLMGEQLGNVARGINIAIVNYVTGNVTATRCFDMYEGDNSGPMTKFIQSAAPKSLLFMVTYDDGSTRLNNDAKNAIEALGSKEIRNMKFRSSWVFIAAKGLELPSEIQREKINHSDAKNNRYSGWPAEIQIEGCIPKERS”: the “percentage of EdU-negative” value in data set [1] (setting [4]) is 27.2 ± 0.94%; in data set [1] (protein concentration 0.225 µM) it was 24.7 ± 0.92%; in data set [2] (setting [4]), 4.35 ± 0.59%; in data set [2] (protein concentration 0.225 µM), 6.31 ± 1.2%.

Take “MRPLLCALTGLALLRAAGSLAAAEPFSPPRGDSAQSTACDRHMAVQRRLDVMEEMVEKTVDHLGTEVKGLLGLLEELAWNLPPGPFSPAPDLLGDGF [Q5JTB6]”: the “percentage of EdU-negative” value in data set [1] (setting [4]) amounted to 28.1 ± 2.1%; in data set [1] (protein concentration 0.225 µM), 26 ± 1.2%; in data set [2] (setting [4]), 4.3 ± 0.46%; in data set [2] (protein concentration 0.225 µM) it was 5.25 ± 0.17%.
